Columns and labels:
[1] = tested on: MDA-MB-231 cells; test: Viability of MDA-MB-231 TNBC cells treated alone and in combination for 5 days; synergy score by SynergyFinder.org; assay type: cell-based; details: single agent, 5 days (FIG. 1A)
Procedure: Triple negative breast cancer (TNBC) cell lines MDA-MB-231, SUM149 and MX-1 were treated with increasing concentrations of Olaparib or Talazoparib and the Omomyc peptide sequence SEQ ID NO: 4, alone and in combination, for 5 days.
Then synergy score was calculated by SynergyFinder.org after having carried out 3 biological replicates.
(§1) Synergy scores can be interpreted as the average excess response due to drug interactions. Synergy scores close to 0 give limited confidence in synergy or antagonism. So, when the synergy scores are: less than −10, the interaction between two drugs is likely to be antagonistic. From −10 to 10, the interaction between two drugs is likely to be additive. Greater than 10, the interaction between two drugs is likely to be synergistic.

[2] = tested on: MIA-PACA-2 cells; test: Viability of PDAC MIA-PACA-2 cells treated alone and in combination for 5 days; synergy score by SynergyFinder.org; assay type: cell-based; details: MIA-PACA-2 cells, Omomyc added to Olaparib
Text: as §1
Pancreatic ductal adenocarcinoma (PDAC) MIA-PACA-2 cells were treated with increasing concentrations of Olaparib and the Omomyc peptide sequence SEQ ID NO: 4 alone and in combination, for 5 days.
Then synergy score was calculated by SynergyFinder.org after having carried out 3 biological replicates as described above.

[3] = tested on: SUM149 cell-derived xenograft (CDX); test: SUM149 cell-derived xenograft (CDX) model, orthotopic in mammary fat-pad, tumour growth; assay type: in vivo; details: SUM149 CDX mice, 4 weeks; Omomyc 50 mg/kg intravenous once a week; Olaparib 50 mg/kg oral gavage 6 times a week; preliminary
Procedure: SUM149 cell-derived xenograft (CDX) model mice were used for in vivo studies. Each mouse was inoculated orthotopically in the mammary fat-pad with 5 million cells. As the tumours reached 100 mm^3, mice were randomised in 4 treatment groups. Specifically, mice were treated with Omomyc once a week (50 mg/kg, intravenous), with Olaparib 6 times a week (50 mg/kg oral gavage), with the combination of the 2 drugs (combo) or with vehicle alone for 4 weeks. Relative volume was calculated as a percentage of tumour growth from the day of randomization and beginning of treatments. At end-point the average of the groups were respectively: vehicle 901.8%, Omomyc 663.6%, Olaparib 623.6%, and combination 335.8%.

[4] = tested on: MDA-MB-231 cells; test: Microarray analysis of gene expression in MDA-MB-231 cells; assay type: cell-based; details: data not shown

B1: Omomyc: Purified recombinant polypeptide of SEQ ID NO: 4: mutated bHLHZip domain of Myc (E61T, E68I, R74Q, R75N) with N-terminal methionine (protein)
chain: TEENVKRRTHNVLERQRRNELKRSFFALRDQIPELENNEKAPKVVILKKATAYILSVQAETQKLISEIDLLRKQNEQLKHKLEQLRNSCA
With B1 the viability of cells [1] was “significantly reduces viability”, the “reversal of olaparib resistance” value [2] was “able to revert olaparib resistance” and the “Relative volume, percentage of tumour growth from the day of randomization (group average at end-point)” value [3] was 663.6%. For the same molecule, the “expression of homologous recombination (HR-) and BRCA1/2-deficiency related genes and pathways” value [4] was “reduces the expression”.

From patent US20260151453A1, “COMBINATION THERAPY FOR THE TREATMENT OF CANCER” (PEPTOMYC, S.L., priority 2022, published 2026)
